According to patent US20180155451A1 (published 2018):

Legend:
[1] = target: T1, FcγRIIIa extracellular domain with C-terminal His tag (human, UniProt P08637 17-208); assay: SPR, relative to GpH7-B3/GpL16-k0
T1 construct: extracellular domain; also called FcgRIIIa; 3a

[2] = target: T1, FcγRIIIa extracellular domain with …; assay: SPR, relative to GpH7-A5/GpH7-B3/GpL16-k0

T1 sequence (P08637 17-208): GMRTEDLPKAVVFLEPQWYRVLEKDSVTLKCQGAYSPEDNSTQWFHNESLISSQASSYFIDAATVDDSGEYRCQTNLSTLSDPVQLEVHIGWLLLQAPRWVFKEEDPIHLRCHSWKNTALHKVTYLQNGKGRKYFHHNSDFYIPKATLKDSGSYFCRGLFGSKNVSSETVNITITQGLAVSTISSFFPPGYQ

Binder	Ho/Con_3a [1]	He/Con_3a [2]
GpH7-B3 variant Q295_14T/GpL16-k0 (antibody, human IgG1, kappa, homodimerized IgG1, mutation in both H chains; also called Ho Ab) heavy: not shown light: DIVMTQSPLSLPVTPGEPASISCQASESLVHSNRNTYLHWYLQKPGQSPQLLIYKVSNRFSGVPDRFSGSGSGTDFTLKISRVEAEDVGVYYCSQNTHVPPTFGQGTKVEIERTVAAPSVFIFPPSDEQLKSGTASVVCLLNNFYPREAKVQWKVDNALQSGNSQESVTEQDSKDSTYSLSSTLTLSKADYEKHKVYACEVTHQGLSSPVTKSFNRGEC	108 % of control (=100)	
GpH7-A5/GpH7-B3 variant K334_01G/GpL16-k0 (antibody, human IgG1, kappa, heterodimerized IgG1, mutation in one H chain only; also called He Ab) heavy 1: not shown heavy 2: not shown light: DIVMTQSPLSLPVTPGEPASISCQASESLVHSNRNTYLHWYLQKPGQSPQLLIYKVSNRFSGVPDRFSGSGSGTDFTLKISRVEAEDVGVYYCSQNTHVPPTFGQGTKVEIERTVAAPSVFIFPPSDEQLKSGTASVVCLLNNFYPREAKVQWKVDNALQSGNSQESVTEQDSKDSTYSLSSTLTLSKADYEKHKVYACEVTHQGLSSPVTKSFNRGEC		121 % of control (=100)
GpH7-A5/GpH7-B3 variant I332_01G/GpL16-k0 (antibody, human IgG1, kappa, heterodimerized IgG1, mutation in one H chain only; also called He Ab) heavy 1: not shown heavy 2: not shown light: DIVMTQSPLSLPVTPGEPASISCQASESLVHSNRNTYLHWYLQKPGQSPQLLIYKVSNRFSGVPDRFSGSGSGTDFTLKISRVEAEDVGVYYCSQNTHVPPTFGQGTKVEIERTVAAPSVFIFPPSDEQLKSGTASVVCLLNNFYPREAKVQWKVDNALQSGNSQESVTEQDSKDSTYSLSSTLTLSKADYEKHKVYACEVTHQGLSSPVTKSFNRGEC		111 % of control (=100)
GpH7-A5/GpH7-B3 variant H268_10E/GpL16-k0 (antibody, human IgG1, kappa, heterodimerized IgG1, mutation in one H chain only; also called He Ab) heavy 1: not shown heavy 2: not shown light: DIVMTQSPLSLPVTPGEPASISCQASESLVHSNRNTYLHWYLQKPGQSPQLLIYKVSNRFSGVPDRFSGSGSGTDFTLKISRVEAEDVGVYYCSQNTHVPPTFGQGTKVEIERTVAAPSVFIFPPSDEQLKSGTASVVCLLNNFYPREAKVQWKVDNALQSGNSQESVTEQDSKDSTYSLSSTLTLSKADYEKHKVYACEVTHQGLSSPVTKSFNRGEC		186 % of control (=100)
GpH7-B3 variant T335_10E/GpL16-k0 (antibody, human IgG1, kappa, homodimerized IgG1, mutation in both H chains; also called Ho Ab) heavy: not shown light: DIVMTQSPLSLPVTPGEPASISCQASESLVHSNRNTYLHWYLQKPGQSPQLLIYKVSNRFSGVPDRFSGSGSGTDFTLKISRVEAEDVGVYYCSQNTHVPPTFGQGTKVEIERTVAAPSVFIFPPSDEQLKSGTASVVCLLNNFYPREAKVQWKVDNALQSGNSQESVTEQDSKDSTYSLSSTLTLSKADYEKHKVYACEVTHQGLSSPVTKSFNRGEC	102 % of control (=100)	
GpH7-A5/GpH7-B3 variant H268_13S/GpL16-k0 (antibody, human IgG1, kappa, heterodimerized IgG1, mutation in one H chain only; also called He Ab) heavy 1: not shown heavy 2: not shown light: DIVMTQSPLSLPVTPGEPASISCQASESLVHSNRNTYLHWYLQKPGQSPQLLIYKVSNRFSGVPDRFSGSGSGTDFTLKISRVEAEDVGVYYCSQNTHVPPTFGQGTKVEIERTVAAPSVFIFPPSDEQLKSGTASVVCLLNNFYPREAKVQWKVDNALQSGNSQESVTEQDSKDSTYSLSSTLTLSKADYEKHKVYACEVTHQGLSSPVTKSFNRGEC		122 % of control (=100)
GpH7-B3 variant S337_10E/GpL16-k0 (antibody, human IgG1, kappa, homodimerized IgG1, mutation in both H chains; also called Ho Ab) heavy: not shown light: DIVMTQSPLSLPVTPGEPASISCQASESLVHSNRNTYLHWYLQKPGQSPQLLIYKVSNRFSGVPDRFSGSGSGTDFTLKISRVEAEDVGVYYCSQNTHVPPTFGQGTKVEIERTVAAPSVFIFPPSDEQLKSGTASVVCLLNNFYPREAKVQWKVDNALQSGNSQESVTEQDSKDSTYSLSSTLTLSKADYEKHKVYACEVTHQGLSSPVTKSFNRGEC	100 % of control (=100)	
GpH7-A5/GpH7-B3 variant A330_20W/GpL16-k0 (antibody, human IgG1, kappa, heterodimerized IgG1, mutation in one H chain only; also called He Ab) heavy 1: not shown heavy 2: not shown light: DIVMTQSPLSLPVTPGEPASISCQASESLVHSNRNTYLHWYLQKPGQSPQLLIYKVSNRFSGVPDRFSGSGSGTDFTLKISRVEAEDVGVYYCSQNTHVPPTFGQGTKVEIERTVAAPSVFIFPPSDEQLKSGTASVVCLLNNFYPREAKVQWKVDNALQSGNSQESVTEQDSKDSTYSLSSTLTLSKADYEKHKVYACEVTHQGLSSPVTKSFNRGEC		104 % of control (=100)
GpH7-B3 variant T335_07I/GpL16-k0 (antibody, human IgG1, kappa, homodimerized IgG1, mutation in both H chains; also called Ho Ab) heavy: not shown light: DIVMTQSPLSLPVTPGEPASISCQASESLVHSNRNTYLHWYLQKPGQSPQLLIYKVSNRFSGVPDRFSGSGSGTDFTLKISRVEAEDVGVYYCSQNTHVPPTFGQGTKVEIERTVAAPSVFIFPPSDEQLKSGTASVVCLLNNFYPREAKVQWKVDNALQSGNSQESVTEQDSKDSTYSLSSTLTLSKADYEKHKVYACEVTHQGLSSPVTKSFNRGEC	107 % of control (=100)	
GpH7-B3 variant S337_18N/GpL16-k0 (antibody, human IgG1, kappa, homodimerized IgG1, mutation in both H chains; also called Ho Ab) heavy: not shown light: DIVMTQSPLSLPVTPGEPASISCQASESLVHSNRNTYLHWYLQKPGQSPQLLIYKVSNRFSGVPDRFSGSGSGTDFTLKISRVEAEDVGVYYCSQNTHVPPTFGQGTKVEIERTVAAPSVFIFPPSDEQLKSGTASVVCLLNNFYPREAKVQWKVDNALQSGNSQESVTEQDSKDSTYSLSSTLTLSKADYEKHKVYACEVTHQGLSSPVTKSFNRGEC	102 % of control (=100)	
GpH7-A5/GpH7-B3 variant I332_02A/GpL16-k0 (antibody, human IgG1, kappa, heterodimerized IgG1, mutation in one H chain only; also called He Ab) heavy 1: not shown heavy 2: not shown light: DIVMTQSPLSLPVTPGEPASISCQASESLVHSNRNTYLHWYLQKPGQSPQLLIYKVSNRFSGVPDRFSGSGSGTDFTLKISRVEAEDVGVYYCSQNTHVPPTFGQGTKVEIERTVAAPSVFIFPPSDEQLKSGTASVVCLLNNFYPREAKVQWKVDNALQSGNSQESVTEQDSKDSTYSLSSTLTLSKADYEKHKVYACEVTHQGLSSPVTKSFNRGEC		112 % of control (=100)
GpH7-A5/GpH7-B3 variant E333_16H/GpL16-k0 (antibody, human IgG1, kappa, heterodimerized IgG1, mutation in one H chain only; also called He Ab) heavy 1: not shown heavy 2: not shown light: DIVMTQSPLSLPVTPGEPASISCQASESLVHSNRNTYLHWYLQKPGQSPQLLIYKVSNRFSGVPDRFSGSGSGTDFTLKISRVEAEDVGVYYCSQNTHVPPTFGQGTKVEIERTVAAPSVFIFPPSDEQLKSGTASVVCLLNNFYPREAKVQWKVDNALQSGNSQESVTEQDSKDSTYSLSSTLTLSKADYEKHKVYACEVTHQGLSSPVTKSFNRGEC		103 % of control (=100)
GpH7-B3 variant S298_14T/GpL16-k0 (antibody, human IgG1, kappa, homodimerized IgG1, mutation in both H chains; also called Ho Ab) heavy: not shown light: DIVMTQSPLSLPVTPGEPASISCQASESLVHSNRNTYLHWYLQKPGQSPQLLIYKVSNRFSGVPDRFSGSGSGTDFTLKISRVEAEDVGVYYCSQNTHVPPTFGQGTKVEIERTVAAPSVFIFPPSDEQLKSGTASVVCLLNNFYPREAKVQWKVDNALQSGNSQESVTEQDSKDSTYSLSSTLTLSKADYEKHKVYACEVTHQGLSSPVTKSFNRGEC	107 % of control (=100)	
GpH7-B3 variant S267_02A/GpL16-k0 (antibody, human IgG1, kappa, homodimerized IgG1, mutation in both H chains; also called Ho Ab) heavy: not shown light: DIVMTQSPLSLPVTPGEPASISCQASESLVHSNRNTYLHWYLQKPGQSPQLLIYKVSNRFSGVPDRFSGSGSGTDFTLKISRVEAEDVGVYYCSQNTHVPPTFGQGTKVEIERTVAAPSVFIFPPSDEQLKSGTASVVCLLNNFYPREAKVQWKVDNALQSGNSQESVTEQDSKDSTYSLSSTLTLSKADYEKHKVYACEVTHQGLSSPVTKSFNRGEC	145 % of control (=100)	
GpH7-B3 variant S267_09D/GpL16-k0 (antibody, human IgG1, kappa, homodimerized IgG1, mutation in both H chains; also called Ho Ab) heavy: not shown light: DIVMTQSPLSLPVTPGEPASISCQASESLVHSNRNTYLHWYLQKPGQSPQLLIYKVSNRFSGVPDRFSGSGSGTDFTLKISRVEAEDVGVYYCSQNTHVPPTFGQGTKVEIERTVAAPSVFIFPPSDEQLKSGTASVVCLLNNFYPREAKVQWKVDNALQSGNSQESVTEQDSKDSTYSLSSTLTLSKADYEKHKVYACEVTHQGLSSPVTKSFNRGEC	160 % of control (=100)	
GpH7-A5/GpH7-B3 variant I332_09D/GpL16-k0 (antibody, human IgG1, kappa, heterodimerized IgG1, mutation in one H chain only; also called He Ab) heavy 1: not shown heavy 2: not shown light: DIVMTQSPLSLPVTPGEPASISCQASESLVHSNRNTYLHWYLQKPGQSPQLLIYKVSNRFSGVPDRFSGSGSGTDFTLKISRVEAEDVGVYYCSQNTHVPPTFGQGTKVEIERTVAAPSVFIFPPSDEQLKSGTASVVCLLNNFYPREAKVQWKVDNALQSGNSQESVTEQDSKDSTYSLSSTLTLSKADYEKHKVYACEVTHQGLSSPVTKSFNRGEC		207 % of control (=100)
GpH7-A5/GpH7-B3 variant A330_08L/GpL16-k0 (antibody, human IgG1, kappa, heterodimerized IgG1, mutation in one H chain only; also called He Ab) heavy 1: not shown heavy 2: not shown light: DIVMTQSPLSLPVTPGEPASISCQASESLVHSNRNTYLHWYLQKPGQSPQLLIYKVSNRFSGVPDRFSGSGSGTDFTLKISRVEAEDVGVYYCSQNTHVPPTFGQGTKVEIERTVAAPSVFIFPPSDEQLKSGTASVVCLLNNFYPREAKVQWKVDNALQSGNSQESVTEQDSKDSTYSLSSTLTLSKADYEKHKVYACEVTHQGLSSPVTKSFNRGEC		124 % of control (=100)
GpH7-B3 variant S239_09D/GpL16-k0 (antibody, human IgG1, kappa, homodimerized IgG1, mutation in both H chains; also called Ho Ab) heavy: not shown light: DIVMTQSPLSLPVTPGEPASISCQASESLVHSNRNTYLHWYLQKPGQSPQLLIYKVSNRFSGVPDRFSGSGSGTDFTLKISRVEAEDVGVYYCSQNTHVPPTFGQGTKVEIERTVAAPSVFIFPPSDEQLKSGTASVVCLLNNFYPREAKVQWKVDNALQSGNSQESVTEQDSKDSTYSLSSTLTLSKADYEKHKVYACEVTHQGLSSPVTKSFNRGEC	192 % of control (=100)	
GpH7-A5/GpH7-B3 variant I332_10E/GpL16-k0 (antibody, human IgG1, kappa, heterodimerized IgG1, mutation in one H chain only; also called He Ab) heavy 1: not shown heavy 2: not shown light: DIVMTQSPLSLPVTPGEPASISCQASESLVHSNRNTYLHWYLQKPGQSPQLLIYKVSNRFSGVPDRFSGSGSGTDFTLKISRVEAEDVGVYYCSQNTHVPPTFGQGTKVEIERTVAAPSVFIFPPSDEQLKSGTASVVCLLNNFYPREAKVQWKVDNALQSGNSQESVTEQDSKDSTYSLSSTLTLSKADYEKHKVYACEVTHQGLSSPVTKSFNRGEC		233 % of control (=100)
GpH7-A5/GpH7-B3 variant H268_09D/GpL16-k0 (antibody, human IgG1, kappa, heterodimerized IgG1, mutation in one H chain only; also called He Ab) heavy 1: not shown heavy 2: not shown light: DIVMTQSPLSLPVTPGEPASISCQASESLVHSNRNTYLHWYLQKPGQSPQLLIYKVSNRFSGVPDRFSGSGSGTDFTLKISRVEAEDVGVYYCSQNTHVPPTFGQGTKVEIERTVAAPSVFIFPPSDEQLKSGTASVVCLLNNFYPREAKVQWKVDNALQSGNSQESVTEQDSKDSTYSLSSTLTLSKADYEKHKVYACEVTHQGLSSPVTKSFNRGEC		197 % of control (=100)
GpH7-B3 variant S337_09D/GpL16-k0 (antibody, human IgG1, kappa, homodimerized IgG1, mutation in both H chains; also called Ho Ab) heavy: not shown light: DIVMTQSPLSLPVTPGEPASISCQASESLVHSNRNTYLHWYLQKPGQSPQLLIYKVSNRFSGVPDRFSGSGSGTDFTLKISRVEAEDVGVYYCSQNTHVPPTFGQGTKVEIERTVAAPSVFIFPPSDEQLKSGTASVVCLLNNFYPREAKVQWKVDNALQSGNSQESVTEQDSKDSTYSLSSTLTLSKADYEKHKVYACEVTHQGLSSPVTKSFNRGEC	106 % of control (=100)	
GpH7-A5/GpH7-B3 variant A330_04F/GpL16-k0 (antibody, human IgG1, kappa, heterodimerized IgG1, mutation in one H chain only; also called He Ab) heavy 1: not shown heavy 2: not shown light: DIVMTQSPLSLPVTPGEPASISCQASESLVHSNRNTYLHWYLQKPGQSPQLLIYKVSNRFSGVPDRFSGSGSGTDFTLKISRVEAEDVGVYYCSQNTHVPPTFGQGTKVEIERTVAAPSVFIFPPSDEQLKSGTASVVCLLNNFYPREAKVQWKVDNALQSGNSQESVTEQDSKDSTYSLSSTLTLSKADYEKHKVYACEVTHQGLSSPVTKSFNRGEC		147 % of control (=100)
